Source: US20230357354A1, “CD38-BINDING CD31 PEPTIDES AND USES THEREOF” (ENCEFA, priority 2020, published 2023)

Each substance was assayed against recombinant His-tagged CD38 (Homo sapiens, UniProt P28907) (assay: Pepscan-based ELISA of His-tagged CD38 on CD31 peptide arrays). Details: mimic type BET (β-turn mimic, mP2 CLIPS); sample with the highest signal.
Format: binding
Text: Different sets of sCD31 peptides were synthesized according to the following designs. Note that actual order of peptides on mini-cards in some was randomized. • Set #1 • Mimic type: linear • Label: LIN15 • Linear peptides of 15 consecutive amino acid residues in length, derived from the target sequence of sCD31 with an offset of […]. • Set #2 • Mimic type: single loop (mP2 CLIPS) • Label: LOOP7 • Constrained peptides of 9 amino acid residues in length. On positions 2-8 are incorporated 7 consecutive amino acid residues derived from the target sequence of sCD31 with an offset of 1.3 residues. Cys residues were inserted on positions 1 and 9 and joined by mP2 CLIPS in order to create a loop mimic. Native Cys residues, if present, were replaced by Ser residues. • Set #3 • Mimic type: single loop, (mP2 CLIPS) • Label: LOOP15 • Constrained peptides of 17 amino acid residues in length. On positions 2-16 are incorporated 15 consecutive amino acid residues derived from the target sequence of sCD31 with an offset of […]. Cys residues were inserted on positions 1 and 17 and joined by mP2 CLIPS in order to create a loop mimic. Native Cys residues, if present, were replaced by Ser residues. • Set #4 • Mimic type: β-turn peptide mimics (mP2 CLIPS) • Label: BET • β-turn peptide mimics of 22 amino acid residues in length. On positions 2-21 are incorporated 20 consecutive amino acid residues derived from the target sequence of sCD31 with an offset of 1.3 residues. Residues on positions 11 and 12 are replaced by a Pro-Gly motif in order to induce the β-turn formation. Cys residues were inserted on positions 1 and 22 and joined by mP2 CLIPS in order to stabilize the mimic. Native Cys residues, if present, were replaced by Ser residues.
To reconstruct epitopes of sCD31, a library of peptide-based peptide mimics was synthesized using Fmoc-based solid-phase peptide synthesis. An amino functionalized polypropylene support was obtained by grafting with a hydrophilic polymer formulation, followed by reaction with t-butyloxycarbonyl-hexamethylenediamine (BocHMDA) using dicyclohexylcarbodiimide (DCC) with N-hydroxybenzotriazole (HOBt) and subsequent cleavage of the Boc-groups using trifluoroacetic acid (TFA).
Standard Fmoc-peptide synthesis was used to synthesize peptides on the amino-functionalized solid support by custom modified JANUS liquid handling stations (Perkin Elmer).
Synthesis of structural mimics was done using CLIPS technology. CLIPS technology allows to structure peptides into single loops, double loops, triple loops, sheet-like folds, helix-like folds, and combinations thereof. CLIPS templates are coupled to cysteine residues. The side-chains of multiple cysteines in the peptides are coupled to one or two CLIPS templates. For example, a 0.5 mM solution of the P2 CLIPS (2,6-bis(bromomethyl)pyridine) is dissolved in ammonium bicarbonate (20 mM, pH 7.8)/acetonitrile (1:3, v/v). This solution is added onto the peptide arrays. The CLIPS template binds to side-chains of two cysteines as present in the solid-phase bound peptides of the peptide-arrays (455 wells plate with 3-µL wells). The peptide arrays are gently shaken in the solution for 30 to 60 minutes while completely covered in solution.
Finally, the peptide arrays are washed extensively with excess of H2O and sonicated in disrupt-buffer containing 1% SDS / 0.1 % 2,2′-(ethylenedioxy)diethanethiol in PBS (pH 7.2) at 70° C. for 30 minutes, followed by sonication in H2O for another 45 minutes.
The binding of the sample (recombinant His-tagged CD38; 9 µg/mL and 20 µg/mL) to each of the synthesized peptides was tested in a pepscan-based ELISA. The peptide arrays were incubated with primary sample solution (overnight at 4° C.). […]

Row | Substance | Value (binding intensity of His-tagged CD38), BET conformational peptide array
1 | 268 (CVKPQHQMLFPGDDVLFYNISC) [compound 268] | 792 mAU
2 | 279 (CPANFTIQKEPGIVSQTQDFTC) [compound 279] | 461 mAU
3 | 281 (CIVVSEMLSQPGISYDAQFEVC) [compound 281] | 414 mAU
4 | 277 (CSKVESSRISPGSSIVVNITEC) [compound 277] | 839 mAU
5 | 269 (CKPQHQMLFYPGDVLFYNISSC) [compound 269] | 641 mAU
6 | 272 (CDDVLFYNISPGKSTESYFIPC) [compound 272] | 524 mAU
7 | 280 (CQIVVSEMLSPGRISYDAQFEC) [compound 280] | 417 mAU
8 | 271 (CKDDVLFYNIPGMKSTESYFIC) [compound 271] | 695 mAU
9 | 16 (CSEVLRVKVIPGVDEVQISILC; Human CD31 peptide) [compound 16] | 649 mAU
10 | 278 (CESSRISKVSPGVVNITELFSC) [compound 278] | 637 mAU
11 | 13 (CVESSRISKVPGIVVNITELFC; Human sCD31 peptide) [compound 13] | 943 mAU
12 | 265 (CTTSHVKPQHPGLFYKDDVLFC) [compound 265] | 679 mAU
13 | 275 (CKLKREKNSRPGNFVILEFPVC) [compound 275] | 833 mAU

Same assay, conditions: mimic type LIN15; sample with the highest signal (His-tagged CD38 9 or 20 µg/mL)

Row | Substance | Value (binding intensity of His-tagged CD38), LIN15 linear peptide array
14 | 83 (NFVILEFPVEEQDRV) [compound 83] | 631 mAU
15 | 80 (DQNFVILEFPVEEQD) [compound 80] | 963 mAU
16 | 171 (SKEQEGEYYCTAFNR) [compound 171] | 454 mAU
17 | 36 (MLFYKDDVLFYNISS) [compound 36] | 451 mAU
18 | 100 (SSRISKVSSIVVNIT) [compound 100] | 168 mAU
19 | 124 (VFKDNPTEDVEYQCV) [compound 124] | 303 mAU
20 | 32 (QHQMLFYKDDVLFYN) [compound 32] | 460 mAU
21 | 123 (PAVFKDNPTEDVEYQ) [compound 123] | 333 mAU
22 | 38 (LFYKDDVLFYNISSM) [compound 38] | 383 mAU
23 | 168 (KQKASKEQEGEYYCT) [compound 168] | 337 mAU

Same assay, conditions: mimic type LOOP7 (single loop, mP2 CLIPS); sample with the highest signal

Row | Substance | Value (binding intensity of His-tagged CD38), LOOP7 conformational peptide array
24 | 202 (CFPEIIIQC) [compound 202] | 596 mAU
25 | 214 (CDVEYQSVC) [compound 214] | 556 mAU
26 | 187 (CYFIPEVRC) [compound 187] | 523 mAU
27 | 179 (CLFYKDDVC) [compound 179] | 604 mAU
28 | 174 (CTLQSFADC) [compound 174] | 427 mAU
29 | 224 (CEGEYYSTC) [compound 224] | 650 mAU
30 | 181 (CKDDVLFYC) [compound 181] | 579 mAU
31 | 199 (CLAQEFPEC) [compound 199] | 412 mAU
32 | 226 (CYYSTAFNC) [compound 226] | 477 mAU
33 | 189 (CEVRIYDSC) [compound 189] | 642 mAU
34 | 186 (CSYFIPEVC) [compound 186] | 400 mAU
35 | 220 (CGEDIVLQC) [compound 220] | 442 mAU
36 | 223 (CQEGEYYSC) [compound 223] | 619 mAU
37 | 183 (CVLFYNISC) [compound 183] | 502 mAU
38 | 182 (CDDVLFYNC) [compound 182] | 702 mAU
39 | 175 (CLQSFADVC) [compound 175] | 561 mAU
40 | 180 (CYKDDVLFC) [compound 180] | 585 mAU
41 | 291 (CNFVILEFC) [compound 291] | 1186 mAU
42 | 194 (CEYQVLVEC) [compound 194] | 651 mAU
43 | 195 (CDQNFVILC) [compound 195] | 628 mAU
44 | 198 (CILEFPVEC) [compound 198] | 537 mAU
45 | 205 (CIVVNITEC) [compound 205] | 630 mAU
46 | 212 (CNPTEDVEC) [compound 212] | 402 mAU

Same assay, conditions: mimic type LOOP15 (single loop, mP2 CLIPS); sample with the highest signal

Row | Substance | Value (binding intensity of His-tagged CD38), LOOP15 conformational peptide array
47 | 231 (CHQMLFYKDDVLFYNIC) [compound 231] | 564 mAU
48 | 254 (CFVILEFPVEEQDRVLC) [compound 254] | 550 mAU
49 | 260 (CSSRISKVSSIVVNITC) [compound 260] | 287 mAU
50 | 255 (CSTIQVTHLAQEFPEIC) [compound 255] | 320 mAU
51 | 233 (CMLFYKDDVLFYNISSC) [compound 233] | 630 mAU
52 | 252 (CQNFVILEFPVEEQDRC) [compound 252] | 729 mAU
53 | 261 (CRISKVSSIVVNITELC) [compound 261] | 567 mAU
54 | 264 (CKVSSIVVNITELFSKC) [compound 264] | 211 mAU
55 | 244 (CTESYFIPEVRIYDSGC) [compound 244] | 465 mAU
56 | 229 (CKPQHQMLFYKDDVLFC) [compound 229] | 467 mAU
57 | 245 (CESYFIPEVRIYDSGTC) [compound 245] | 373 mAU
58 | 248 (CREKNSRDQNFVILEFC) [compound 248] | 1073 mAU
59 | 227 (CHVKPQHQMLFYKDDVC) [compound 227] | 431 mAU
